Like-named read-outs stand apart in the source and are kept apart here.
B1: acetyl-coenzyme A synthetase 1 (Acs1) (enzyme, S. cerevisiae (endogenous in SK1 cells), UniProt Q01574 1-713, looked up)
chain: MSPSAVQSSKLEEQSSEIDKLKAKMSQSAATAQQKKEHEYEHLTSVKIVPQRPISDRLQPAIATHYSPHLDGLQDYQRLHKESIEDPAKFFGSKATQFLNWSKPFDKVFIPDPKTGRPSFQNNAWFLNGQLNACYNCVDRHALKTPNKKAIIFEGDEPGQGYSITYKELLEEVCQVAQVLTYSMGVRKGDTVAVYMPMVPEAIITLLAISRIGAIHSVVFAGFSSNSLRDRINDGDSKVVITTDESNRGGKVIETKRIVDDALRETPGVRHVLVYRKTNNPSVAFHAPRDLDWATEKKKYKTYYPCTPVDSEDPLFLLYTSGSTGAPKGVQHSTAGYLLGALLTMRYTFDTHQEDVFFTAGDIGWITGHTYVVYGPLLYGCATLVFEGTPAYPNYSRYWDIIDEHKVTQFYVAPTALRLLKRAGDSYIENHSLKSLRCLGSVGEPIAAEVWEWYSEKIGKNEIPIVDTYWQTESGSHLVTPLAGGVTPMKPGSASFPFFGIDAVVLDPNTGEELNTSHAEGVLAVKAAWPSFARTIWKNHDRYLDTYLNPYPGYYFTGDGAAKDKDGYIWILGRVDDVVNVSGHRLSTAEIEAAIIEDPIVAECAVVGFNDDLTGQAVAAFVVLKNKSSWSTATDDELQDIKKHLVFTVRKDIGPFAAPKLIILVDDLPKTRSGKIMRRILRKILAGESDQLGDVSTLSNPGIVRHLIDSVKL
B2: aldehyde dehydrogenase 4 (Ald4) (enzyme, S. cerevisiae (endogenous in SK1 cells), UniProt P46367 25-519, looked up)
chain: SHLPMTVPIKLPNGLEYEQPTGLFINNKFVPSKQNKTFEVINPSTEEEICHIYEGREDDVEEAVQAADRAFSNGSWNGIDPIDRGKALYRLAELIEQDKDVIASIETLDNGKAISSSRGDVDLVINYLKSSAGFADKIDGRMIDTGRTHFSYTKRQPLGVCGQIIPWNFPLLMWAWKIAPALVTGNTVVLKTAESTPLSALYVSKYIPQAGIPPGVINIVSGFGKIVGEAITNHPKIKKVAFTGSTATGRHIYQSAAAGLKKVTLELGGKSPNIVFADAELKKAVQNIILGIYYNSGEVCCAGSRVYVEESIYDKFIEEFKAASESIKVGDPFDESTFQGAQTSQMQLNKILKYVDIGKNEGATLITGGERLGSKGYFIKPTVFGDVKEDMRIVKEEIFGPVVTVTKFKSADEVINMANDSEYGLAAGIHTSNINTALKVADRVNAGTVWINTYNDFHHAVPFGGFNASGLGREMSVDALQNYLQVKAVRAKLDE

Legend:
cryo-EM structure [1] = target: the molecule itself; assay: cryo-EM structure
cryo-EM structure [2] = target: the molecule itself; assay: cryo-EM structure; remark: listed apart in the source

Protein	stoichiometry N (cryo-EM structure [1])	stoichiometry N (cryo-EM structure [2])
B1	3	–
B2	–	4
